Values of other authors in publication PMC8859281.

Key:
[1] = target: prokineticin receptor 2 (Homo sapiens) (UniProt Q8NFJ6)
[2] = target: prokineticin receptor 1 (Homo sapiens) (UniProt Q8TCW9)
[3] = target: κ-opioid receptor (UniProt P41145)
κ-opioid receptor, sequence (P41145 whole entry): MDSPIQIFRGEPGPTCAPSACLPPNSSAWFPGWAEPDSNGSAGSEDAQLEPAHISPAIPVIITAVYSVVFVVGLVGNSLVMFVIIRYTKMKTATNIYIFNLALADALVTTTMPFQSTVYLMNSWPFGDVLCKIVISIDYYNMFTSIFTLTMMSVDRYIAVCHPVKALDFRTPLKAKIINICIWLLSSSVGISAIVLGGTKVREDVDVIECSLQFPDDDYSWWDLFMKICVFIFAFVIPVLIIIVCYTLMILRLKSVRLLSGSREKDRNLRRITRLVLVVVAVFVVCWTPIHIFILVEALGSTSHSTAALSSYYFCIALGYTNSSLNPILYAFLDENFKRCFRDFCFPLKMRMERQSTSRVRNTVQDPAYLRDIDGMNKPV

MIT1, sequence (P25687 whole entry): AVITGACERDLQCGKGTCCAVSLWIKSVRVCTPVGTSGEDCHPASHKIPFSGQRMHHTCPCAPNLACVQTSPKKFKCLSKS
prokineticin receptor 2 (Homo sapiens), sequence (Q8NFJ6 whole entry): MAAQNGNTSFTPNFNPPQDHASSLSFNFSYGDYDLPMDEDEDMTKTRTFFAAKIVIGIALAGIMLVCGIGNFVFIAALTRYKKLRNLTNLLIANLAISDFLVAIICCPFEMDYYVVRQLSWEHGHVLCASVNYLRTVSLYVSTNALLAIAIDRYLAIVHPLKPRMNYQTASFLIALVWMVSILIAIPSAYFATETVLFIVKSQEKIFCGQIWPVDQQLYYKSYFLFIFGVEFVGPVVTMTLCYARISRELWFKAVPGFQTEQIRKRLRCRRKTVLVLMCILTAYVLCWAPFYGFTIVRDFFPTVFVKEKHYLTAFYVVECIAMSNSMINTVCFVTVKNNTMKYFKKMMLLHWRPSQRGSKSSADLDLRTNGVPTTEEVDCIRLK
prokineticin receptor 1 (Homo sapiens), sequence (Q8TCW9 whole entry): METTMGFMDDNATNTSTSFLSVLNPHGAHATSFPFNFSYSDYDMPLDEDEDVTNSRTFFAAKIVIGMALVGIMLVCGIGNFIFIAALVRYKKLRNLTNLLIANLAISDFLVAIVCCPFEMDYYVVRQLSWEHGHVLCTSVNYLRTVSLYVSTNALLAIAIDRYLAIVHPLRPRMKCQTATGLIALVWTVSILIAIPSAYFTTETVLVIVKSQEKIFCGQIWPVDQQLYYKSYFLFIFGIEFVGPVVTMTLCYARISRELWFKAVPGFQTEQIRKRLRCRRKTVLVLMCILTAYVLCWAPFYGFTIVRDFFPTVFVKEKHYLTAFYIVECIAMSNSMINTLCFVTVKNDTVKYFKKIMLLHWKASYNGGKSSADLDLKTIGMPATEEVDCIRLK

| Substance | Ki [1] | Ki [2] | Ki [3] |
| --- | --- | --- | --- |
| MIT1 (from UniProt P25687) | 670 pM | 4100 pM |  |
| dynorphin A 1-17 (from UniProt P01213) |  |  | 280 pM |
